Results: patent publication US20040248211A1, “ICAM-related protein” (priority 1992, published 2004)

How the values were obtained:
[1] = test system: CEM cells; test: Detergent resistance (cytoskeleton association) assay, CEM; format: cell-based, human
Experimental: PBL or washed CEM cell suspensions ([…]) were dispensed into Falcon 12×75 mm tubes in ice-cold PBS-5% FBS, pelleted, and resuspended in 50 μl of FITC-conjugated anti-ICAM-R monoclonal antibody 26E3D-1 or 26I10E-2 adjusted to saturating concentration in the same buffer. Antibody binding was permitted to proceed for 30 minutes on ice, afterwhich unbound antibody was removed by pelleting cells which had first been resuspended in 1 ml of […] through an underlaid cushion (0.7 ml) of neat (undiluted) FBS.
For groups stained with FITC-conjugated monoclonal antibody only, the 1 ml suspension was divided into two equal parts, each of which was separately underlaid with FBS, centrifuged, and the supernatant removed by aspiration. Cell pellets were then resuspended in 200 ul of control buffer (13 mM Tris pH 8.0, 150 mM NaCl, 2 mM MgCl2, 2 mM EGTA, 2% FBS, 2.5 ug/ml aprotinin, 1 mM PMSF, 10 mM iodoacetamide) or detergent buffer [0.5% NP-40 (v/v) (US Biochemical, Cleveland, Ohio) in control buffer] and held for 20 minutes at room temperature, or overnight at 4° C., prior to FACS analysis. For groups in which cell surface-bound monoclonal antibody was crosslinked with secondary antibodies, following the first antibody staining step, washed cell pellets were resuspended in 50 ul of FITC-goat anti-mouse IgG (Sigma) diluted 1:100 in PBS-5% FCS and incubated for 30 minutes on ice. […]

[2] = test system: Fraction C cells (quiescent CD3 positive PBL); test: IL-2 production by T lymphocytes after prepulse on antibody; format: cell-based, human; settings: 18 hours prepulse on immobilized antibody, then anti-CD3 OKT3
Experimental: Human PBL were obtained by Ficoll-Hypaque centrifugation of whole peripheral blood. Adherent cells were depleted by incubation on plastic and nonadherent cells were subjected to discontinuous centrifugation on Percoll gradients to further separate subsets of lymphocytes into medium buoyant density (fraction B) and high buoyant density (fraction C) cell populations. Prior to cell addition, wells were coated with monoclonal antibodies by addition of 0.1 ml each antibody at 5 ug/ml in PBS per microtiter well. Following antibody addition, all wells were incubated overnight at 4 degrees and each well was washed free of unbound antibody by PBS rinsing prior to addition of cells. Each cell fraction was then incubated for 18 hours on either ICR-1.1, ICR-4.2 or control antibodies to human major Histocompatibility Complex Class I (MHC Class I). For these experiments 2×10^5 cells per well were added in a volume of 0.2 ml RPMI-1640 containing 10% FCS to individual wells of a 96 well flat bottom microtiter plate (Costar, Cambridge, Mass.). After 18-20 hours incubation at 37° C., the cells were collected from the microtiter wells and washed twice in RPMI-1640 media containing 10% FCS and adjusted to 1×10^6 per ml in RPMI-1640 containing 10% FCS. […]

[3] = test system: ICAM-R peptides; test: Multipin peptide ELISA; format: binding, human; settings: hybridoma supernatant
Experimental: The first method for mapping linear epitopes recognized by the ICAM-R specific antibodies of the invention utilized the Multipin Peptide Synthesis System (Chiron Mimotopes Pty. Ltd., Victoria, Australia) which places ten amino acid peptides representing overlapping segments of the protein of interest on the surface of a series of plastic pins. A modified ELISA test is performed to determine binding of a monoclonal antibody to each peptide.
The ELISA to determine binding of the monoclonal antibodies to ICAM-R peptides was run as follows. […] The pins were transferred to plates containing ABTS substrate solution [0.5 mg/ml ABTS, 0.01% weight/volume H2O2 in substrate buffer (17.9 g/L Na2HPO4H2O, 16.8 g/L citric acid monohydrate, pH 4.0)] for 45 minutes at 20° C. with agitation and then the plates were read at 410/495 nm.
Relative reactivity with individual pins was determined after normalizing results for differences in immunoglobulin concentrations in anti-ICAM-R and control hybridoma supernatants and reactivities of positive controls between assays. Mouse IgG levels for each supernatant had been determined by antibody capture ELISA as follows. […] Antibody concentrations of culture supernatant were determined by fitting measured optical densities to the standard curve of the isotype matched control.

B1: ICR-1.1: anti-ICAM-R monoclonal antibody, IgG2a, domain 1, ATCC HB 11053 (antibody, V domains shown)
VH: QVQLQQSGAELAKPGASVKMSCKASGYTFTVYWMHWVKQRPGQGLEWIGYINPNTDYTEYNQRFQDKATLTADKSSSTAYMQLSSLTSEDSAVYYCARWGGNSYGLDYWGQGTSVTVSS
VL: QIVLTQSPALMSASPGEKVTMTCSASSSVSYIYWYQQKPRSSPKPWIYLTSNLASGVPARFSGSGSGASYSLTISIMEAEDAATYYCQQWKSIPLTFGAGTKLELK
[1]; CEM
  greater increase in detergent resistance, crosslinked antibody: 2-3 fold
[1]; FITC-conjugated antibody, similar in PBL
  ICAM-R association with cytoskeleton (detergent resistance), antibody alone: negligible
[2]
  IL-2 produced relative to prepulse on negative control antibodies: less than 50%
[3]
  reactivity with overlapping ten amino acid ICAM-R peptides: two overlapping peptides spanning amino acids 13-23
